In publication PMC7211993:

Molecular target: MDA-modified bovine serum albumin (bovine), P02769
Experiment: MST; microscale thermophoresis with both binding partners in fluid phase
Conditions: remark: other sources report otherwise

MDA-modified bovine serum albumin (bovine), P02769, sequence (P02769 25-607): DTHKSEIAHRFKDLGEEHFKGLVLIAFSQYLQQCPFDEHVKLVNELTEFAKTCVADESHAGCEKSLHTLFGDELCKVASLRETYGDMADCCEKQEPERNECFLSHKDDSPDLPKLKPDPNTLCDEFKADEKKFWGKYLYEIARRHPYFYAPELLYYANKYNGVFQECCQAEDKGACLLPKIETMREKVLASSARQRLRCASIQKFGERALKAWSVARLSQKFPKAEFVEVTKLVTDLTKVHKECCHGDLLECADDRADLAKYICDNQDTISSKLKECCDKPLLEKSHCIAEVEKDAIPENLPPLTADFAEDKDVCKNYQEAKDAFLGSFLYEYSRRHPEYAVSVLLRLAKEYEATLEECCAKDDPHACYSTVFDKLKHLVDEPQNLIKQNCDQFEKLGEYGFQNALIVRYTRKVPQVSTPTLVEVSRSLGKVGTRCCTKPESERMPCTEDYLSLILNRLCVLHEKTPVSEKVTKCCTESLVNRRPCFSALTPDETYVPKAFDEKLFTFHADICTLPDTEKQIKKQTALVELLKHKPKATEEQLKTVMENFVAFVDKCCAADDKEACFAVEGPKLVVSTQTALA

B1: complement factor H, P08603 19-1231 (natural protein)
chain: EDCNELPPRRNTEILTGSWSDQTYPEGTQAIYKCRPGYRSLGNVIMVCRKGEWVALNPLRKCQKRPCGHPGDTPFGTFTLTGGNVFEYGVKAVYTCNEGYQLLGEINYRECDTDGWTNDIPICEVVKCLPVTAPENGKIVSSAMEPDREYHFGQAVRFVCNSGYKIEGDEEMHCSDDGFWSKEKPKCVEISCKSPDVINGSPISQKIIYKENERFQYKCNMGYEYSERGDAVCTESGWRPLPSCEEKSCDNPYIPNGDYSPLRIKHRTGDEITYQCRNGFYPATRGNTAKCTSTGWIPAPRCTLKPCDYPDIKHGGLYHENMRRPYFPVAVGKYYSYYCDEHFETPSGSYWDHIHCTQDGWSPAVPCLRKCYFPYLENGYNQNYGRKFVQGKSIDVACHPGYALPKAQTTVTCMENGWSPTPRCIRVKTCSKSSIDIENGFISESQYTYALKEKAKYQCKLGYVTADGETSGSITCGKDGWSAQPTCIKSCDIPVFMNARTKNDFTWFKLNDTLDYECHDGYESNTGSTTGSIVCGYNGWSDLPICYERECELPKIDVHLVPDRKKDQYKVGEVLKFSCKPGFTIVGPNSVQCYHFGLSPDLPICKEQVQSCGPPPELLNGNVKEKTKEEYGHSEVVEYYCNPRFLMKGPNKIQCVDGEWTTLPVCIVEESTCGDIPELEHGWAQLSSPPYYYGDSVEFNCSESFTMIGHRSITCIHGVWTQLPQCVAIDKLKKCKSSNLIILEEHLKNKKEFDHNSNIRYRCRGKEGWIHTVCINGRWDPEVNCSMAQIQLCPPPPQIPNSHNMTTTLNYRDGEKVSVLCQENYLIQEGEEITCKDGRWQSIPLCVEKIPCSQPPQIEHGTINSSRSSQESYAHGTKLSYTCEGGFRISEENETTCYMGKWSSPPQCEGLPCKSPPEISHGVVAHMSDSYQYGEEVTYKCFEGFGIDGPAIAKCLGEKWSHPPSCIKTDCLSLPSFENAIPMGEKKDVYKAGEQVTYTCATYYKMDGASNVTCINSRWTGRPTCRDTSCVNPPTVQNAYIVSRQMSKYPSGERVRYQCRSPYEMFGDEEVMCLNGNWTEPPQCKDSTGKCGPPPPIDNGDITSFPLSVYAPASSVEYQCQNLYQLEGNKRITCRNGQWSEPPKCLHPCVISREIMENYNIALRWTAKQKLYSRTGESVEFVCKRGYRLSSRSHTLRTTCWDGKLEYPTCAKR
modifications: here or on the partner: malondialdehyde-acetaldehyde (MAA) / malondialdehyde (MDA) adducts; sites not stated
Kd: 2.44 µM
